The values that follow come from article PMC5431965.

In assay [1] the target is HydF, wild type recombinant, Thermotoga neapolitana (Thermotoga neapolitana). Put plainly: SEC; Superdex 200 GL 10 300 in 25 mM Tris-HCl pH 8.0, 200 mM KCl, 1 mM MgCl2; column calibrated with molecular weight standards.
For assay [2], the target named is HydF V261C mutant (cysteine-less background), spin labeled with MTSSL (Thermotoga neapolitana). Put plainly: PELDOR (DEER) pulse EPR; distances between spin labels on the two monomers; protein about 150 uM in deuterated buffer with 33% v/v deuterated glycerol, quickly frozen, Q-band, 50 K; without and with 10 mM GTP.

For the substance “HydF, wild type recombinant, Thermotoga neapolitana (natural protein)”, in assay [1], the stoichiometry N was determined as 2.
“HydF V261C mutant (cysteine-less background), spin labeled with MTSSL (natural protein)” gave a stoichiometry N in assay [2] of 2.
